Like-named read-outs stand apart in the source and are kept apart here.
Experiments:
Experiment in all cases: SPR captured Fab
Human CD33 S128N = Human CD33 S128N (human, UniProt P20138 18-259)
V domain of human CD33 [1] = target: T1, V domain of human CD33 (human, UniProt P20138 18-139, limits assumed)
T1 construct: Whole entry named; also called Human CD33 V domain
Description: (§1) Kinetics and affinity of a series of Fab fragments of anti-CD33 antibodies with different CD33 variants (human CD33 ECD, cyno CD33 ECD, V-domain of human CD33, C-domain or human CD33 and selected CD33 SNPs) were assessed by surface plasmon resonance using Biacore 8K instrument (GE Healthcare). Anti-Fab antibody was immobilized on a CM5 chip using standard amine coupling chemistry. CD33 FABs were captured on the anti-Fab chip at a density of ˜100 RU. Solutions containing different concentrations of soluble monomeric CD33 or its domains were injected over the captured FABs and control surfaces at 30 μl/min at 37° C. Surfaces were regenerated between cycles by quick injection of 10 mM glycine, pH 1.8. To obtain kinetic rate constants double-referenced data were fit to a 1:1 interaction model using Biacore 8K Evaluation software (GE Healthcare). The equilibrium binding constant KD was determined by the ratio of binding rate constants kd/kₐ.

Human CD33 R69G = Human CD33 R69G (human, UniProt P20138 18-259)
V domain of human CD33 [2] = target: T1, V domain of human CD33; remark: listed apart in the source
Description: as §1

B1: ADI-11826 Fab (Fab, V domains shown)
VH: EVQLVESGGGLVQPGGSLRLSCAASGFTFPGYWMSWVRQAPGKGLEWVANINQDGSEVYYVDSVKGRFTISRDNAKNSLYLQMNSLRAEDTAVYYCAREANYYGNVGDDYWGQGTLVTVSS
VL: DIQMTQSPSSLSASVGDRVTITCRASQSIYNYLNWYQQKPGKAPKLLIYAASSTQSGVPSRFSGSGSGTDFTLTISSLQPEDFATYYCQQAFHVPITFGGGTKVEIK
notes: Fab fragment; also called Ab26
For B1, the Kd (Human CD33 S128N) was 2.65 nM, the koff (Human CD33 S128N) was 0.00574 s⁻¹ and the kon (Human CD33 S128N) was 2.17e+06 M⁻¹ s⁻¹. The koff (V domain of human CD33 [1]) was 0.00225 s⁻¹, the Kd (Human CD33 R69G) was 3.83 nM and the koff (Human CD33 R69G) was 0.00723 s⁻¹. It also gave a kon (Human CD33 R69G) of 1.89e+06 M⁻¹ s⁻¹ and a koff (V domain of human CD33 [2]) of 0.00225 s⁻¹.

Reference: patent US20250154261A1 (published 2025)
